Measurements published in patent US20120142103A1, “METHOD FOR INDUCING DIFFERENTIATION INTO EPITHELIAL PROGENITOR CELL/STEM CELL POPULATION AND CORNEAL EPITHELIAL CELL POPULATION FROM INDUCED PLURIPOTENT STEM CELLS” (priority 2010, published 2012).

Test system: mouse iPS cells
Assay: Modified KCM method: differentiation of mouse iPS cells on collagen into epithelial progenitor/stem cells (immunostaining, flow cytometry of keratin 14-positive cells)
Format: cell-based
Method: The iPS cells on the SNL feeders were collected by treatment with 0.25% trypsin/EDTA and further pipetted to prepare an iPS cell suspension (single cell suspension). The obtained cell suspension was incubated on a gelatin-coated culture dish for approximately 1 to 2 hours. The supernatant was collected to thereby allow only the feeder cells to adhere to the dish and collect only the iPS cells. The number of the obtained iPS cells was counted. The iPS cells were inoculated at a density of 0.5 to 10×10^3 cells/cm^2 onto a type IV collagen-coated culture dish as described below and cultured at 37° C. for 7 to 28 days in a 5% CO2 atmosphere using a KCM medium shown below. 0.5 nM BMP4, (R&D System) was further added to the KCM medium, and the cells were cultured in the same way as above.
The cells after differentiation induction were examined for the expressions of a basal epithelial cell marker keratin 14, an epithelial progenitor cell/stem cell marker p63, and a corneal epithelial differentiation marker keratin 12 by an immunostaining method. Moreover, keratin 14-positive cells were analyzed by flow cytometry. The immunostaining method and the flow cytometry analysis will be shown in detail below.
After fixation in cold methanol (−30° C./20 min), 5% NST was added to the cells, which were then left at room temperature for 30 minutes for blocking. […]

B1: BMP4: Bone Morphogenetic Protein 4, one of bone morphogenetic factors, belongs to the transforming growth factor-β (TGF-β) superfamily (protein, UniProt P12644 293-408, looked up)
Bone morphogenetic protein 4: SPKHHSQRARKKNKNCRRHSLYVDFSDVGWNDWIVAPPGYQAFYCHGDCPFPLADHLNSTNHAIVQTLVNSVNSSIPKACCVPTELSAISMLYLDEYDKVVLKNYQEMVVEGCGCR
induction efficiency of differentiation (keratin 14-positive cells, flow cytometry) (0.5 nM BMP4 added to KCM medium, day 28, 2.9% without BMP4): 6.0% | epithelial induction efficiency (keratin 14-positive and p63-positive cells, immunostaining) (BMP4 added to KCM medium, day 28): significantly increased epithelial induction efficiency
